Experimental data published in PMC4622665 (mAbs, 2014).
Numbering of substitutions follows the chain as printed.

B1: Fpro0084 IgG (antibody, V domains shown)
VH: EVQLVESGGGLVKPGGSLRLSCAASGFTFSNAWMNWVRQAPGKGLEWVGRIKSKTDGGAADYAAPVKGRFTISRDDSKNTLYLQMNSLKTEDTAVYYCTTDQLGYDFWSGYYTDTLYYYFGMDVWGPGTTVTVSS
VL: DIVMTQSPLSLPVTPGEPASISCRSSQQLQAYDGHNYLDWYLQKPGQSPQVLIYLGSNRASGVPDRFSGSGSGTDFTLKISRVEAEDVGVYYCMQALQTPLTFGGGTKVEIK
B2: Hy38-1 IgG1 (antibody, V domains shown)
VH: B1 VH
VL: not shown
B3: Fpro0067 IgG (antibody, V domains shown)
VH: B1 VH
VL: B1 VL with Q28P, Q30L, Y32M, L55Q, G56S, S57K, N58W

target: human formyl peptide receptor 1 (human, UniProt P21462); assay: FMAT competition binding on cells
Sequence (P21462 whole entry): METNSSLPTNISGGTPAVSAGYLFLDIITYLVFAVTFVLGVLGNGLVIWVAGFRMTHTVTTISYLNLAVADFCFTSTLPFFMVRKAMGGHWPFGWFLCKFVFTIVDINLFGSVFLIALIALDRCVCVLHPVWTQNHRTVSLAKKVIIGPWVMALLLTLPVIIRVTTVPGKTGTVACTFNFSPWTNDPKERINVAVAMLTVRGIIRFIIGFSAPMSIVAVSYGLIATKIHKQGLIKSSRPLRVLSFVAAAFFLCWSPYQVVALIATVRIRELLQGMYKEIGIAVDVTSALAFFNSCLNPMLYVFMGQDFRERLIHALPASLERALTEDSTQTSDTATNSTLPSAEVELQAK

Point of comparison: B3, IC50 14 nM. Against it:
- B1 — within 1.5-fold, 13 nM
- B2 — 2.3-fold higher, 32 nM
